Assay results from article PMC3033579.

Experiments:
SSB = target: T1, SSB (Bacillus subtilis, UniProt P37455 1-172); assay: EMSA
T1 sequence: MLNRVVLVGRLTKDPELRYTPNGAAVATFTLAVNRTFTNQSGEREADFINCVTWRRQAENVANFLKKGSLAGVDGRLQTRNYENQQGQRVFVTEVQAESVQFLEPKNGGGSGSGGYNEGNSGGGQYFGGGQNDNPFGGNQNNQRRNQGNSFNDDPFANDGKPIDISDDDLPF

DnaD = target: T2, DnaD (Bacillus subtilis, UniProt P39787 1-232); assay: EMSA
T2 sequence: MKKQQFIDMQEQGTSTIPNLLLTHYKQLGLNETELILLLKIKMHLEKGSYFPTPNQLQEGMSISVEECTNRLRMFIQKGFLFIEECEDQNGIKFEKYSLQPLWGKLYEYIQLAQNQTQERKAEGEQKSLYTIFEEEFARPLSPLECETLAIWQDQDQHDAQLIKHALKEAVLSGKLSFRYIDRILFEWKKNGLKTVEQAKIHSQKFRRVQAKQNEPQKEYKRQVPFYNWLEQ

## TTACACAGTAACTCATATGCTTCGCTATTACGCC (ssDNA) [34mer oligonucleotide]
SSB
  binding signal: 600 fold higher affinity than Cd and DnaD
DnaD
  binding signal: 600 fold lower affinity than SSB
